{"source": "patent US20240201167A1", "about": "(ALBERT EINSTEIN COLLEGE OF MEDICINE, published 2024)", "binders": {"B1": {"name": "HVEM expressed on cells (receptor, human, UniProt Q92956 39-283, looked up)", "chain": "LPSCKEDEYPVGSECCPKCSPGYRVKEACGELTGTVCEPCPPGTYIAHLNGLSKCLQCQMCDPAMGLRASRNCSRTENAVCGCSPGHFCIVQDGDHCAACRAYATSSPGQRVQKGGTESQDTLCQNCPPGTFSPNGTLEECQHQTKCSWLVTKAGAGTSSSHWVWWFLSGSLVIVIVCSTVGLIICVKRRKPRGDVVKVIVSVQRKRQEAEGEATVIEALQAPPDVTTVAVEETIPSFTGRSPNH", "notes": "whole, on cells"}, "B2": {"name": "mouse B7-1 expressed on cells (ligand)", "chain": "VDEQLSKSVKDKVLLPCRYNSPHEDESEDRIYWQKHDKVVLSVIAGKLKVWPEYKNRTLYDNTTYSLIILGLVLSDRGTYSCVVQKKERGTYEVKHLALVKLSIKADFSTPNITESGNPSADTKRITCFASGGFPKPRFSWLENGRELPGINTTISQDPESELYTISSQLDFNTTRNHTIKCLIKYGDAHVSEDFTWEKPPEDPPDSKNTLVLFGAGFGAVITVVVIVVIIKCFCKHRSCFRRNEASRETNNSLTFGPEEALAEQTVFL", "notes": "Cytosolic mCherry tag; also called mouse B7-1-mCherry; rodent B7-1"}, "B3": {"name": "p75NTR-mIgG2a (Fc fusion)", "chain": "KEACPTGLYTHSGECCKACNLGEGVAQPCGANQTVCEPCLDSVTFSDVVSATEPCKPCTECVGLQSMSAPCVEADDAVCRCAYGYYQDETTGRCEACRVCEAGSGLVFSCQDKQNTVCEECPDGTYSDEANHVDPCLPCTVCEDTERQLRECTRWADAECEEIPGRWITRSTPPEGSDSTAPSTQEPEAPPEQDLIASTVAGVVTTVMGSSQPVVTRGTTDN", "notes": "Full-length ectodomain; also called p75-mIgG2A; recombinant p75 mIgG2a; not shown: C-terminal mIgG2a-His10 Fc domain"}, "B4": {"name": "human p75 neurotrophin receptor, full length, expressed on HEK 293 cells (receptor)", "chain": "KEACPTGLYTHSGECCKACNLGEGVAQPCGANQTVCEPCLDSVTFSDVVSATEPCKPCTECVGLQSMSAPCVEADDAVCRCAYGYYQDETTGRCEACRVCEAGSGLVFSCQDKQNTVCEECPDGTYSDEANHVDPCLPCTVCEDTERQLRECTRWADAECEEIPGRWITRSTPPEGSDSTAPSTQEPEAPPEQDLIASTVAGVVTTVMGSSQPVVTRGTTDNLIPVYCSILAAVVVGLVAYIAFKRWNSCKQNKQGANSRPVNQTPPPEGEKLHSDSGISVDSQSLHDQQPHTQTASGQALKGDGGLYSSLPPAKREEVEKLLNGSAGDTWRHLAGELGYQPEHIDSFTHEACPVRALLASWATQDSATLDALLAALRRIQRADLVESLCSESTATSPV", "notes": "Full-length human p75 with a cytosolic fluorescent tag (GFP); also called p75NTR; NGFR"}}, "key": {"[1]": {"molecular_target": "T1, human B7-1 (CD80), full length, expressed on HEK 293 cells (Homo sapiens, UniProt P33681 35-280)", "T1 construct": "also called hB7-1; B7-1-mCherry", "T1 sequence": "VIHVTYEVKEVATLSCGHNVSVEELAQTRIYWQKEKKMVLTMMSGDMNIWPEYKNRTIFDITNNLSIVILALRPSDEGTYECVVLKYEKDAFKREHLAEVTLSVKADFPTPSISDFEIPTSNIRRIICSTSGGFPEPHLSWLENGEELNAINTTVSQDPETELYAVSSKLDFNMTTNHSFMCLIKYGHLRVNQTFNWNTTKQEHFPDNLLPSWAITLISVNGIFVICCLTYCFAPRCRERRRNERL", "test": "cell-cell screen, flow cytometry", "experimental": "(§1) As illustrated, cells were transfected with expression cassettes expressing labeled receptors or labeled ligands, receptor-expressing cells were mixed with ligand-expressing cells and cell-to-cell binding was monitored by detecting the labels associated with the receptor and the ligand. […] Binding was detected using an anti-mIgG2A ab and flow cytometry. The binding curves were fit and the Bmax, EC50, and hill coefficient were calculated using the equation Y=Bmax*Xh/(Kdh+Xh)."}, "mouse p75NTR": {"molecular_target": "T2, mouse p75NTR (mouse, UniProt Q9Z0W1 32-427)", "T2 construct": "whole, on cells; also called mouse p75NTR-GFP; murine p75", "T2 sequence (looked up)": "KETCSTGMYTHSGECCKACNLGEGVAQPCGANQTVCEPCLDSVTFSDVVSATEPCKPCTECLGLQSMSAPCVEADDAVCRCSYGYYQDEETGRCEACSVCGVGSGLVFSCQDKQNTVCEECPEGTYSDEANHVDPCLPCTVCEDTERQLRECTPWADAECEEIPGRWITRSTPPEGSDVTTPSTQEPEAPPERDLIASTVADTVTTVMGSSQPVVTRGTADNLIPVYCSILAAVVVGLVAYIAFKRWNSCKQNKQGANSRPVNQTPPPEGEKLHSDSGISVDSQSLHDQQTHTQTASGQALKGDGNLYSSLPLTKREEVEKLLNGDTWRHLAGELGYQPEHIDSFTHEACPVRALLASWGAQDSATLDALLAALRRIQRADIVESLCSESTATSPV", "test": "cell-cell binding, flow cytometry"}, "[2]": {"molecular_target": "T3, rat p75NTR expressed on cells (rat, UniProt P07174 30-425)", "T3 construct": "whole, on cells; also called rat p75NTR-GFP; rodent p75NTR", "T3 sequence (looked up)": "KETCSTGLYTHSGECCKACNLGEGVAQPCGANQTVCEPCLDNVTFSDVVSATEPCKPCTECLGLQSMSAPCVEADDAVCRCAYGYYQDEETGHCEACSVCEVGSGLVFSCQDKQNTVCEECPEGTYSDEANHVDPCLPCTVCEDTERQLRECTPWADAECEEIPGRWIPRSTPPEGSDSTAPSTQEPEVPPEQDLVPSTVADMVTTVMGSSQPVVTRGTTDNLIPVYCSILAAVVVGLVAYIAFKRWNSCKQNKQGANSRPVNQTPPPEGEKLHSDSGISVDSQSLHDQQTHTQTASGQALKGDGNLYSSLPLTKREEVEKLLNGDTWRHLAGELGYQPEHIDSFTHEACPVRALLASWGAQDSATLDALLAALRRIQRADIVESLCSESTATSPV", "test": "cell-cell binding, flow cytometry"}, "[3]": {"molecular_target": "B4", "test": "cell-cell binding, flow cytometry"}, "B7-1-hIgG1-biotin [4]": {"molecular_target": "T4, B7-1-hIgG1-biotin (human, UniProt P33681 35-233, biotin on the AVI tag (BirA))", "T4 construct": "Loaded on streptavidin beads; the paragraph gives residues only; also called B7-1-Fc-biotin; hB7-1 (residues 35-233) hIgG1-His10-AVI; not shown: C-terminal 10xHis and AVI tagged hIgG1 Fc domain", "T4 chain": "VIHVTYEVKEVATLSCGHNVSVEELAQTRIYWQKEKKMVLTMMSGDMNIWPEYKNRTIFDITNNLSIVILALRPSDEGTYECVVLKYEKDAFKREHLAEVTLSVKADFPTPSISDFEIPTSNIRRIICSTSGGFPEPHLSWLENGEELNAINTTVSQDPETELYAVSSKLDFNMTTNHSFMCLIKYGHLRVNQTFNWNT", "test": "Fc fusions titrated on streptavidin beads coated with B7-1-hIgG1-biotin, flow cytometry", "excerpt": "(§2) Binding was detected by flow cytometry on a SONY Spectral Analyzer (SA 3800). Binding curves were fit using the equation Y=Bmax*Xh/(Kdh+Xh)."}, "B7-1-hIgG1-biotin [5]": {"molecular_target": "T4, B7-1-hIgG1-biotin", "test": "p75-mIgG2A titrated on streptavidin beads coated with B7-1-hIgG1-biotin; anti-mIgG2A, flow cytometry", "excerpt": "as §2"}, "[6]": {"molecular_target": "T5, protein tyrosine phosphatase receptor type F expressed on cells (human, UniProt P10586 30-1907)", "T5 construct": "whole, on cells; also called PTPRF; PTPRF mCherry", "test": "cell-cell screen, flow cytometry", "experimental": "as §1"}, "[7]": {"molecular_target": "T1, human B7-1 (CD80), full length, …", "test": "cell-cell binding, flow cytometry; percent of the wild-type pair"}, "[8]": {"molecular_target": "T6, human B7-1 K139D on cells (Homo sapiens, UniProt P33681 35-280)", "T6 construct": "mCherry-tagged point mutant; also called LYS139ASP; LYS139 ASP", "T6 chain": "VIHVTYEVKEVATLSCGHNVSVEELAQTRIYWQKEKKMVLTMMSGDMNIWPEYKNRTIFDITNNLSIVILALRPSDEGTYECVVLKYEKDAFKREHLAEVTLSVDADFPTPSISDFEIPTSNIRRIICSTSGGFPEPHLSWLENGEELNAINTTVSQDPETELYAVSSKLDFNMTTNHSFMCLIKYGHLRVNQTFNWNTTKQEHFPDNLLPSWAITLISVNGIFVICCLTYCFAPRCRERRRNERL", "test": "cell-cell binding, flow cytometry; percent of the wild-type pair"}, "human B7-1 R63D on cells": {"molecular_target": "T7, human B7-1 R63D on cells (Homo sapiens, UniProt P33681 35-280)", "T7 construct": "mCherry-tagged point mutant; also called ARG63 ASP", "T7 chain": "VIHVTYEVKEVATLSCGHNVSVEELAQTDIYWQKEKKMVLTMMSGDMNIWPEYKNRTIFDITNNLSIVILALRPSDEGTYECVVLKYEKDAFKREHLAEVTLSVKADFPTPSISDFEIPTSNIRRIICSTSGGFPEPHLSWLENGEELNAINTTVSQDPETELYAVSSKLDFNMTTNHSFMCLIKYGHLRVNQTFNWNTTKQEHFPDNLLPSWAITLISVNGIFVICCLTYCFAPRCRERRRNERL", "test": "cell-cell binding, flow cytometry; percent of the wild-type pair"}, "human B7-1 N82E on cells": {"molecular_target": "T8, human B7-1 N82E on cells (Homo sapiens, UniProt P33681 35-280)", "T8 construct": "C-terminally fused to mCherry; also called ASN82 GLU", "T8 chain": "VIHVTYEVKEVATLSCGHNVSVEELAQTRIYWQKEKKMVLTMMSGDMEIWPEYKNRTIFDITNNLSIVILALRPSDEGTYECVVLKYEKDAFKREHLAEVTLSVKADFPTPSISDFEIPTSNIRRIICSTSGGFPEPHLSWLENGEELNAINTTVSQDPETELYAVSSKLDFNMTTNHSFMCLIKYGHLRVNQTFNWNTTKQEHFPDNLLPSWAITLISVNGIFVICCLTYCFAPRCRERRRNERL", "test": "cell-cell binding, flow cytometry; percent of the wild-type pair"}, "[9]": {"molecular_target": "T9, human B7-1 K120D on cells (Homo sapiens, UniProt P33681 35-280)", "T9 construct": "mCherry-tagged point mutant; also called LYS120 ASP", "T9 chain": "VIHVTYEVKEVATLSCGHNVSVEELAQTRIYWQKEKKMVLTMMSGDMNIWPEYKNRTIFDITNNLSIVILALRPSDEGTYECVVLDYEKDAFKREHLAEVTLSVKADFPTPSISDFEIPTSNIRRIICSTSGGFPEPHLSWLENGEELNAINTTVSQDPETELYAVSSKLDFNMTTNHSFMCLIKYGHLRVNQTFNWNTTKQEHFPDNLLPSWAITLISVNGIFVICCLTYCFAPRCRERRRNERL", "test": "cell-cell binding, flow cytometry; percent of the wild-type pair"}, "[10]": {"molecular_target": "T10, human B7-1 K127D on cells (Homo sapiens, UniProt P33681 35-280)", "T10 construct": "mCherry-tagged point mutant; also called LYS127 ASP", "T10 chain": "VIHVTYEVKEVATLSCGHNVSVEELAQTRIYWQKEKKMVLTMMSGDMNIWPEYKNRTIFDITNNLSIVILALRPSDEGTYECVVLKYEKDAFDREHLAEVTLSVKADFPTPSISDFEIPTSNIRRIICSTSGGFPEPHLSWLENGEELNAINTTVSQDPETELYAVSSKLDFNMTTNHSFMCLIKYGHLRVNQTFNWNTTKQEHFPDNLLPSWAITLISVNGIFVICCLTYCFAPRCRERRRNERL", "test": "cell-cell binding, flow cytometry; percent of the wild-type pair"}}, "data": [{"binder": "B1", "values": [{"measurement": "binding result", "setting": "[1]", "value": "no binding"}]}, {"binder": "B2", "values": [{"measurement": "binding result", "setting": "mouse p75NTR", "value": "no binding"}, {"measurement": "binding result", "setting": "[2]", "value": "no binding"}, {"measurement": "binding result", "setting": "[3]", "value": "no binding"}]}, {"binder": "B3", "values": [{"measurement": "fold higher EC50 than B7-1:CTLA-4", "setting": "B7-1-hIgG1-biotin [4]", "value": "~30", "unit": "fold"}, {"measurement": "EC50", "setting": "B7-1-hIgG1-biotin [5]", "value": 16, "unit": "nM"}]}, {"binder": "B4", "values": [{"measurement": "binding result", "setting": "[6]", "value": "binds"}, {"measurement": "percent binding", "setting": "[7]", "value": 100, "unit": "%"}, {"measurement": "percent binding", "setting": "[8]", "value": 21, "unit": "%"}, {"measurement": "percent binding", "setting": "human B7-1 R63D on cells", "value": 30, "unit": "%"}, {"measurement": "percent binding", "setting": "human B7-1 N82E on cells", "value": 25, "unit": "%"}, {"measurement": "percent binding", "setting": "[9]", "value": 20, "unit": "%"}, {"measurement": "percent binding", "setting": "[10]", "value": 26, "unit": "%"}]}]}
